The values below are quoted from earlier work in paper PMC10817355.

In this series the target is BTLA (Homo sapiens) (UniProt Q7Z6A9).
Chain of UniProt Q7Z6A9 (Q7Z6A9 31-157): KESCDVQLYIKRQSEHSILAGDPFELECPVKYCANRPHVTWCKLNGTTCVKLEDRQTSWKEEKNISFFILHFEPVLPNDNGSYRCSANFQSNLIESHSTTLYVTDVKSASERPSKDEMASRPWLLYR

Broadly, the Kd is the constant that tells how readily two partners part at equilibrium. HVEM(14-39) 14-39 (from UniProt Q92956): the Kd is 102 nM.
